Bridge positions count the residues as written; N and C are the ends. Square brackets hold non-standard residues; d marks the D form. dTle = CC(C)(C)[C@@H](N)C(=O)O; hCys = N[C@@H](CCS)C(=O)O

The values that follow come from patent publication US20160022764A1 (RHYTHM PHARMACEUTICALS, published 2016).

Among the targets are melanocortin-1 receptor (human, UniProt Q01726 1-317); melanocortin-5 receptor (human, UniProt P33032 1-325); melanocortin-4 receptor (human, UniProt P32245 1-332); melanocortin-3 receptor (human, UniProt P41968 1-323).
Holding throughout (experiment): cell-based or functional assay

Chain of melanocortin-3 receptor (P41968 whole entry): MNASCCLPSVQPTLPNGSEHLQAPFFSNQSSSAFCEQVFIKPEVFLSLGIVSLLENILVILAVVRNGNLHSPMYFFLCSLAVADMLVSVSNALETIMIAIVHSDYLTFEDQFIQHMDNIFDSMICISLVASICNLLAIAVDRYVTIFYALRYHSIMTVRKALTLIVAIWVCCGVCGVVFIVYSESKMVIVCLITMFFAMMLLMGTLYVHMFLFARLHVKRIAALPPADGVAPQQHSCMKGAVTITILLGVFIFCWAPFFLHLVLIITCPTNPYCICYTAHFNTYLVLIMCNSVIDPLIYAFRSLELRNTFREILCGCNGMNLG
Chain of melanocortin-4 receptor (P32245 whole entry): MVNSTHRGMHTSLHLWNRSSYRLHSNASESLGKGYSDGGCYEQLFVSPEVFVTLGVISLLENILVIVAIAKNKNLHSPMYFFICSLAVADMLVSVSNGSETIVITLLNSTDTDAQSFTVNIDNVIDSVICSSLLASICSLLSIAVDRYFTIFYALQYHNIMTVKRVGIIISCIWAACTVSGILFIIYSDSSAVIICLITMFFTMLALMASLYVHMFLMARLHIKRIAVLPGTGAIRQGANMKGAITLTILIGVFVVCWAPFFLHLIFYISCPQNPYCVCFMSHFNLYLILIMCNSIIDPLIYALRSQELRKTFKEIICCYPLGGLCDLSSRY
Chain of melanocortin-1 receptor (Q01726 whole entry): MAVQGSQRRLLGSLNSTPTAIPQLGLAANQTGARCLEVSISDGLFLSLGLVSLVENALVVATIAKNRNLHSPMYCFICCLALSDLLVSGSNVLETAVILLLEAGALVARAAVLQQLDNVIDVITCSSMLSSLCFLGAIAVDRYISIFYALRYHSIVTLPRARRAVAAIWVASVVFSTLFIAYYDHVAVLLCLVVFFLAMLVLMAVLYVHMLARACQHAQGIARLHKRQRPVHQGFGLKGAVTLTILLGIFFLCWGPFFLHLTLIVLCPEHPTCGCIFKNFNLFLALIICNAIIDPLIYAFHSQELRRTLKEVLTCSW
Chain of melanocortin-5 receptor (P33032 whole entry): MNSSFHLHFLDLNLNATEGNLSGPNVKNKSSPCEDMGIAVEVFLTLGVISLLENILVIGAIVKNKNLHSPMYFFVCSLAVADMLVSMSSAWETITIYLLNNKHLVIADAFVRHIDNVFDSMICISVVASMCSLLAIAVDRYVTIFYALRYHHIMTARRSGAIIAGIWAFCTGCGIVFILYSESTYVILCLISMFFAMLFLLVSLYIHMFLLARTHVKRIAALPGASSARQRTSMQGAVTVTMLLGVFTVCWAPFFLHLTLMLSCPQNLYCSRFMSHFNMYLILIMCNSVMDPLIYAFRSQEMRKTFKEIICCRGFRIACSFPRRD

On to Ac-RC[dI]H[dF]RWC-NH2 (disulfide 2-8) [Compound 2: Ac-Arg-cyclo[Cys-D-Ile-His-D-Phe-Arg-Trp-Cys]-NH2], for which, in the test with melanocortin-1 receptor, the “Ratios of EC50 values: MC1/4” value turned out to be 0.69 and the “cAMP Assay (EC-50)” value was determined as 0.69 nM. Also, in the test with melanocortin-5 receptor, the “Ratios of EC50 values: MC5/4” value was 420 and the “cAMP Assay (EC-50)” value was determined as 420 nM. Besides, in the test with melanocortin-4 receptor, the “cAMP Assay (EC-50)” value came to 1 nM. In the test with melanocortin-3 receptor, the “Ratios of EC50 values: MC3/4” value amounted to 0.96 and the “cAMP Assay (EC-50)” value worked out at 0.96 nM.
Consider Ac-RC[dTle]H[dF]RWC-NH2 (disulfide 2-8) [Compound 3: Ac-Arg-cyclo[Cys-D-Tle-His-D-Phe-Arg-Trp-Cys]-NH2], for which the “cAMP Assay (EC-50)” value with melanocortin-1 receptor amounted to 1 nM; with melanocortin-5 receptor it was 672 nM; in the test with melanocortin-3 receptor, 0.7 nM.
For Ac-RC[dA][His(3-Me)][dF]RWC-NH2 (disulfide 2-8) [Compound 5: Ac-Arg-cyclo[Cys-D-Ala-His(3-Me)-D-Phe-Arg-Trp-Cys]-NH2], the “cAMP Assay (EC-50)” value was determined as 4.1 nM with melanocortin-1 receptor, 1080 nM with melanocortin-5 receptor, 1.15 nM in the test with melanocortin-4 receptor and 406 nM with melanocortin-3 receptor.

B1: Compound 11: Ac-Arg-cyclo[Cys-D-Ala-Tyr-D-Phe-Arg-Trp-Cys]-NH2 (peptide)
peptide: Ac-RC[dA]Y[dF]RWC-NH2
modifications: disulfide 2-8
SMILES: CC(=O)N[C@@H](CCCNC(=N)N)C(=O)N[C@H]1CSSC[C@@H](C(N)=O)NC(=O)[C@H](Cc2c[nH]c3ccccc23)NC(=O)[C@H](CCCNC(=N)N)NC(=O)[C@@H](Cc2ccccc2)NC(=O)[C@H](Cc2ccc(O)cc2)NC(=O)[C@@H](C)NC1=O
Regarding B1, in the test with melanocortin-1 receptor, the “Ratios of EC50 values: MC1/4” value was found to be 6.67 and the “cAMP Assay (EC-50)” value was 301 nM. Further, in the test with melanocortin-4 receptor, the “cAMP Assay (EC-50)” value is 45.1 nM. In addition, in the test with melanocortin-3 receptor, the “Ratios of EC50 values: MC3/4” value is over 22.2 and the “cAMP Assay (EC-50)” value is over 1000 nM.

B2: Compound 13: Ac-Arg-cyclo[Cys-D-Ala-Pro-D-Phe-Arg-Trp-Cys]-NH2 (peptide)
peptide: Ac-RC[dA]P[dF]RWC-NH2
modifications: disulfide 2-8
SMILES: CC(=O)N[C@@H](CCCNC(=N)N)C(=O)N[C@H]1CSSC[C@@H](C(N)=O)NC(=O)[C@H](Cc2c[nH]c3ccccc23)NC(=O)[C@H](CCCNC(=N)N)NC(=O)[C@@H](Cc2ccccc2)NC(=O)[C@@H]2CCCN2C(=O)[C@@H](C)NC1=O
Take B2: in the test with melanocortin-1 receptor, the “Ratios of EC50 values: MC1/4” value amounted to 5 and the “cAMP Assay (EC-50)” value worked out at 280 nM. In the test with melanocortin-5 receptor, the “Ratios of EC50 values: MC5/4” value was found to be 13 and the “cAMP Assay (EC-50)” value was 707 nM. In addition, the “cAMP Assay (EC-50)” value in the test with melanocortin-4 receptor worked out at 56 nM. Also, in the test with melanocortin-3 receptor, the “Ratios of EC50 values: MC3/4” value is over 200 and the “cAMP Assay (EC-50)” value was over 10000 nM.
With Ac-RC[dV]H[dF]RWC-NH2 (disulfide 2-8) [Compound 4: Ac-Arg-cyclo[Cys-D-Val-His-D-Phe-Arg-Trp-Cys]-NH2], in the test with melanocortin-1 receptor, the “Ratios of EC50 values: MC1/4” value is 0.93 and the “cAMP Assay (EC-50)” value was 1.25 nM. Moreover, in the test with melanocortin-5 receptor, the “Ratios of EC50 values: MC5/4” value is 584 and the “cAMP Assay (EC-50)” value worked out at 782 nM. In the test with melanocortin-4 receptor, the “cAMP Assay (EC-50)” value was 1.34 nM. Further, in the test with melanocortin-3 receptor, the “Ratios of EC50 values: MC3/4” value turned out to be 1.19 and the “cAMP Assay (EC-50)” value worked out at 1.59 nM.

B3: Compound 16: Ac-Arg-cyclo[hCys-D-Ala-D-Phe-Arg-Trp-Cys]-NH2 (peptide)
peptide: Ac-R[hCys][dA][dF]RWC-NH2
modifications: disulfide 2-7
SMILES: CC(=O)N[C@@H](CCCNC(=N)N)C(=O)N[C@H]1CCSSC[C@@H](C(N)=O)NC(=O)[C@H](Cc2c[nH]c3ccccc23)NC(=O)[C@H](CCCNC(=N)N)NC(=O)[C@@H](Cc2ccccc2)NC(=O)[C@@H](C)NC1=O
For the molecule B3, in the test with melanocortin-1 receptor, the “Ratios of EC50 values: MC1/4” value came to 120 and the “cAMP Assay (EC-50)” value was 888 nM. Moreover, in the test with melanocortin-5 receptor, the “Ratios of EC50 values: MC5/4” value was over 1340 and the “cAMP Assay (EC-50)” value was over 10000 nM. The “cAMP Assay (EC-50)” value with melanocortin-4 receptor is 7.5 nM. Moreover, in the test with melanocortin-3 receptor, the “Ratios of EC50 values: MC3/4” value was 420 and the “cAMP Assay (EC-50)” value was found to be 3160 nM.
As to Ac-RC[dA][His(1-Me)][dF]RWC-NH2 (disulfide 2-8) [Compound 6: Ac-Arg-cyclo[Cys-D-Ala-His(1-Me)-D-Phe-Arg-Trp-Cys]-NH2], the “cAMP Assay (EC-50)” value with melanocortin-1 receptor was determined as 30.4 nM; in the test with melanocortin-5 receptor, 467 nM; in the test with melanocortin-3 receptor, 4.3 nM.

B4: Compound 22: Ac-Glu-cyclo[Cys-Ala-His-D-Phe-Arg-Trp-Cys]-NH2 (peptide)
peptide: Ac-ECAH[dF]RWC-NH2
modifications: disulfide 2-8
SMILES: CC(=O)N[C@@H](CCC(=O)O)C(=O)N[C@H]1CSSC[C@@H](C(N)=O)NC(=O)[C@H](Cc2c[nH]c3ccccc23)NC(=O)[C@H](CCCNC(=N)N)NC(=O)[C@@H](Cc2ccccc2)NC(=O)[C@H](Cc2c[nH]cn2)NC(=O)[C@H](C)NC1=O
With B4, in the test with melanocortin-1 receptor, the “Ratios of EC50 values: MC1/4” value is over 3 and the “cAMP Assay (EC-50)” value was determined as 1.7 nM. Besides, in the test with melanocortin-5 receptor, the “Ratios of EC50 values: MC5/4” value was over 2560 and the “cAMP Assay (EC-50)” value was determined as 1280 nM. Moreover, the “cAMP Assay (EC-50)” value with melanocortin-4 receptor was under 0.5 nM. Also, in the test with melanocortin-3 receptor, the “Ratios of EC50 values: MC3/4” value is over 20 and the “cAMP Assay (EC-50)” value is 9.9 nM.
